Test results from US20240034792A1 (HARBOUR BIOMED SHANGHAI, published 2024).
Substitutions are numbered along the chain they refer to.

B1: PR005096 (VHH)
VHH: EVQLVETGGGLIQPGGSLRLSCAASGFNVSSHYMSWVRQAPGKGREWVSIIDGGGSTYYADSVKGRFTISRDNSKNRLYLQMNSLRAEDTAMYYCARATRVPEKGGYNYPFNYWGQGTLVTVSS
notes: Monovalent single-domain (VH) variant of PR002481 with Flag-6His tag
B2: PR005101 (VHH)
VHH: B1 VHH with G53K, S56G, R100A, P102A, G105N
notes: as for B1
B3: PR005100 (VHH)
VHH: B1 VHH with G53R, T57K, R100A, P102A, G105N
notes: as for B1
B4: PR005099 (VHH)
VHH: B1 VHH with G53S, G54A, R100A, P102A, G105N
notes: as for B1
B5: PR005104 (VHH)
VHH: B1 VHH with G53I, G54S, R100A, P102A, G105N
notes: as for B1
B6: PR005103 (VHH)
VHH: B1 VHH with G53R, S56G, R100A, P102A, G105N
notes: as for B1
B7: PR005098 (VHH)
VHH: B1 VHH with R100Q, P102R
notes: as for B1
B8: PR005097 (VHH)
VHH: B1 VHH with R100A, P102R, G105N
notes: as for B1
B9: PR005102 (VHH)
VHH: B1 VHH with G53R, R100A, P102A, G105N
notes: as for B1
B10: PR005578 (antibody, human IgG1, V domains shown)
VH: B1 VHH with S30A, H32Y, G53K, G54A, T57G, R100A, P102R, G105Q
notes: no light chain; also called anti-PD1 PR002481Com_27 HCAb hIgG1
B11: PR005577 (antibody, human IgG1, V domains shown)
VH: B1 VHH with S30A, H32Y, G53K, G54A, T57G, R100E, P102R, G105Q
notes: no light chain; also called anti-PD1 PR002481Com_26 HCAb hIgG1
B12: PR005575 (antibody, human IgG1, V domains shown)
VH: B1 VHH with S30A, G53K, G54A, T57G, R100E, P102R, G105Q
notes: no light chain; also called anti-PD1 PR002481Com_24 HCAb hIgG1
B13: PR005569 (antibody, human IgG1, V domains shown)
VH: B1 VHH with S31F, H32Y, G53K, G54S, D61A, R100E, P102R, G105N
notes: no light chain; also called anti-PD1 PR002481R2M4_E2 HCAb hIgG1
B14: PR005572 (antibody, human IgG1, V domains shown)
VH: B1 VHH with S30A, S31F, H32Y, G53K, R100E, P102R, G105Q
notes: no light chain; also called anti-PD1 PR002481Com_32 HCAb hIgG1

What follows are binders tested against T1, Human PD-1 protein with histidine and avi tags (ACRO Biosystems, PD1-H82E4) (human, UniProt Q15116 25-167) (assay: BLI; ratio of kdis, apparently PR005090 over the variant).
T1 construct: Captured on streptavidin (SA) sensors in the BLI assay; not shown: histidine and avi tags
T1 sequence (Q15116 25-167 limits assumed): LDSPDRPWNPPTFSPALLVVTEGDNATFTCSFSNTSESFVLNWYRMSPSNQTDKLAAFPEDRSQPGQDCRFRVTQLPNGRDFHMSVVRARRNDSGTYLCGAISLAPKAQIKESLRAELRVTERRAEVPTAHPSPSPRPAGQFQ
Procedure: (§1) Human PD-1 proteins with histidine and avi tags were purchased from the manufacturer ACRO Biosystems (Cat#: PD1-H82E4), and the assay buffer was 1× kinetics buffer (diluted from 10× kinetics buffer (ForteBio, Cat#: 18-1105)) for kinetic assay and dilution of antigens and antibodies. The binding kinetics between the antigen and the antibody was analyzed by the biolayer interferometry (BLI) technique using an Octet molecular interaction analyzer (ForteBio, model: Octet Red96e).
(§2) When the binding kinetics between the antigen and the antibody was determined, the rotation speed of the sensor was set at 1000 rpm/min. The eight SA sensors placed in a column were first equilibrated in an assay buffer for 10 min and then used to capture PD-1 at a capture height of 0.5 nm. Thereafter, the SA sensors were equilibrated in the assay buffer for 100 s, and then were associated with each antibody diluted to a single concentration and with a row of blank buffer wells for 180 s, followed by dissociation for 600 s. A new column of SA sensors were used in each cycle.
(§3) When data analysis was performed using Octet Data Analysis software (Fortebio, version 11.0), the reference signals were subtracted by a single reference mode (reference well), the data were fitted by a “1:1 Local fitting” method, and the kinetic parameters of the binding of the antigen to the antibody were calculated to obtain kon (1/Ms) values, kdis (1/s) values and KD (M) values.

Row | kdis ratio | Binder
1 | 1.91 | B1
2 | 6.61 | B2
3 | 3.8 | B3
4 | 2.51 | B4
5 | 4.7 | B5
6 | 4.54 | B6
7 | 2.9 | B7
8 | 1.46 | B8
9 | 4.25 | B9

What follows are binders tested against T2, Human PD-1 expressed on CHO-K1 cells (CHO-K1/hPD-1) (human, UniProt Q15116 25-288) (assay: FACS, CHO-K1/hPD-1 cells).
T2 construct: whole, on cells; also called CHO-K1 cells overexpressing human PD-1
T2 sequence (Q15116 25-288): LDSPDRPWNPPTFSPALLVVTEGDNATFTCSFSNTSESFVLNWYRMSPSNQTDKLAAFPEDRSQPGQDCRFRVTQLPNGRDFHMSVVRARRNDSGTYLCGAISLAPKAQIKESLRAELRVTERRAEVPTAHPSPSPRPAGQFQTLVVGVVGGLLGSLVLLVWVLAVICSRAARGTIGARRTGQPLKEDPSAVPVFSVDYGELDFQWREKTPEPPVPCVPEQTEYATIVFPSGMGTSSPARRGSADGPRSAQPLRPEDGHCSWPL

Row | EC50 | Maximum (MFI) | Binder
10 | 4.28 nM | 2.71e+06 | B10
11 | 6.5 nM | 2.49e+06 | B11
12 | 3.93 nM | 2.58e+06 | B12
13 | 3.4 nM | 3.14e+06 | B13
14 | 4.68 nM | 3.04e+06 | B14

Biological target: T2, Human PD-1 expressed on CHO-K1 cells …
Experiment: FACS, CHO-K1/hPD-1 cells
Remark: another data set of the same source
Procedure: In order to investigate the in vitro binding activity of the PD-1 antigen-binding proteins to human/cynomolgus monkey PD-1, the binding assay at the cellular level was performed using a CHO-K1 cell strain overexpressing human or cynomolgus monkey PD-1 (CHO-K1/hPD-1 or CHO-K1/cyno PD-1, from GenScript). Briefly, the CHO-K1-hPD-1 cells were digested and resuspended in an F-12K complete medium, and the cell density was adjusted to 1×10⁶ cells/mL. The cells were seeded in a 96-well V-bottom plate (Corning, Cat#3894) at 100 μL/well, followed by the addition of the test antigen-binding proteins with concentrations 2-fold of final concentrations obtained by 5-fold gradient dilution were each added at 100 μL/well. The mixtures were well mixed. The maximum final concentration of the antigen-binding proteins was 100 nM or 300 nM. A total of 8-11 concentrations were set. hIgG was used as a control. The cells were incubated at 4° C. for 1 h away from light. Thereafter, the cells in each well were rinsed twice with 100 μL of pre-cooled PBS, and centrifuged at 500 g at 4° C. for 5 min, and then the supernatant was discarded. Then 100 μL of a fluorescent secondary antibody (goat anti-human IgG (H+L) secondary antibody, Alexa Fluor® 488 conjugate, Invitrogen, Cat #A11013, 1:1000) was added to each well. The plate was incubated away from light at 4° C. for 30 min. The cells in each well were rinsed twice with 200 μL of pre-cooled PBS, and centrifuged at 500 g at 4° C. for 5 min, and then the supernatant was discarded. Finally, the cells in each well were resuspended in 200 μL of pre-cooled PBS, and the fluorescence signal values were read using a BD FACS CANTOII.

Row | EC50 | MFI Maximum | Binder
15 | 27.6 nM | 4320 | B1
16 | 22.1 nM | 6900 | B2
17 | 19 nM | 6510 | B3
18 | 15.4 nM | 6350 | B4
19 | 11.8 nM | 7300 | B5
20 | 14.5 nM | 6890 | B6
21 | 18.4 nM | 5720 | B7
22 | 17.9 nM | 4080 | B8
23 | 12.2 nM | 6560 | B9

The binders below were run against T1, Human PD-1 protein with histidine and … (assay: BLI (Octet Red96e), PD-1 captured on SA sensor, 1:1 local fit).
Procedure: as §1, §2, §3

Row | Kd | koff | kon | Binder
24 | 10.4 nM | 0.000599 s⁻¹ | 57900 M⁻¹ s⁻¹ | B1
25 | 58.8 nM | 0.000173 s⁻¹ | 2940 M⁻¹ s⁻¹ | B2
26 | 11.6 nM | 0.000301 s⁻¹ | 26000 M⁻¹ s⁻¹ | B3
27 | 4.32 nM | 0.000455 s⁻¹ | 105000 M⁻¹ s⁻¹ | B4
28 | 6.46 nM | 4.28e-05 s⁻¹ | 12900 M⁻¹ s⁻¹ | B12
29 | 3.08 nM | 0.000243 s⁻¹ | 79000 M⁻¹ s⁻¹ | B5
30 | 0.482 nM | 5.75e-06 s⁻¹ | 11900 M⁻¹ s⁻¹ | B13
31 | 79.6 nM | 0.000252 s⁻¹ | 3160 M⁻¹ s⁻¹ | B6
32 | 5.88 nM | 0.000394 s⁻¹ | 67100 M⁻¹ s⁻¹ | B7
33 | 13.9 nM | 0.000784 s⁻¹ | 56600 M⁻¹ s⁻¹ | B8
34 | 5.99 nM | 0.000268 s⁻¹ | 44800 M⁻¹ s⁻¹ | B9
35 | 3.32 nM | 4.28e-05 s⁻¹ | 12900 M⁻¹ s⁻¹ | B14
